Reference: PMC3196764 (Progress in retinal and eye research, 2011)

Experiments:
[1] = target: calmodulin (Bos taurus) (UniProt P62157); settings: cited from earlier work
[2] = target: light-activated unphosphorylated rhodopsin (UniProt P02699 1-348, light-activated)
Chain of light-activated unphosphorylated rhodopsin (P02699 whole entry): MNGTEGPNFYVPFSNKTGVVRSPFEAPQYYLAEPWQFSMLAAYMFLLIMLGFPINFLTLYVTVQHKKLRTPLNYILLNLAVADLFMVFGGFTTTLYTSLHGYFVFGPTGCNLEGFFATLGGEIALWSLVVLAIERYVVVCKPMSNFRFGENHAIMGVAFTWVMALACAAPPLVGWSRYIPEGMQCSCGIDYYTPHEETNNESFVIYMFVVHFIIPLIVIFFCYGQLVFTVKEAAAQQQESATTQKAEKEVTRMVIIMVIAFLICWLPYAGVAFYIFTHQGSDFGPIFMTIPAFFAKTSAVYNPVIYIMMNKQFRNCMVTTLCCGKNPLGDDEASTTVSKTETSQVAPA

Row | Molecule | Kd [1] [µM] | percent of the maximum binding achieved at 37°C [2] [%]
1 | arrestin-1 (from UniProt P08168) | 7 | –
2 | arrestin-1 3A+R175E combination mutant (natural protein, UniProt P08168 1-404, looked up) MKANKPAPNHVIFKKISRDKSVTIYLGKRDYIDHVERVEPVDGVVLVDPELVKGKRVYVSLTCAFRYGQEDIDVMGLSFRRDLYFSQVQVFPPVGASGATTRLQESLIKKLGANTYPFLLTFPDYLPCSVMLQPAPQDVGKSCGVDFEIKAFATHSTDVEEDKIPKKSSVRLLIEKVQHAPRDMGPQPRAEASWQFFMSDKPLRLAVSLSKEIYYHGEPIPVTVAVTNSTEKTVKKIKVLVEQVTNVVLYSSDYYIKTVAAEEAQEKVPPNSSLTKTLTLVPLLANNRERRGIALDGKIKHEDTNLASSTIIKEGIDKTVMGILVSYQIKVKLTVSGLLGELTSSEVATEVPFRLMHPQPEDPDTAKESFQDENAAAEEFARQNLKDAGEYKEEKTDQEAAMDE | – | 26
